Experimental data published in US20260184782A1 (TWIST BIOSCIENCE, published 2026).

T1: human TIGIT-Fc (human, UniProt Q495A1 22-141, limits assumed)
T1 construct: not shown: Fc; not described
T1 sequence (looked up): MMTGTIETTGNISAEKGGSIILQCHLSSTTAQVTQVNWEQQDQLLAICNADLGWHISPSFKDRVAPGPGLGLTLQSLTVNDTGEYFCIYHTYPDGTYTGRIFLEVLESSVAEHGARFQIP


Target: T1, human TIGIT-Fc
Experiment: CD155 competition ELISA, single point; further: test concentration or dose not given here
Experimental: TIGIT/CD155 inhibition of VHH-Fcs were assessed using an ELISA assay (Table 10B). Briefly, human TIGIT-Fc was coated on a plate & then incubated with VHH-Fcs and human CD155-biotin. Bound CD155-biotin was detected using a streptavidin-HRP conjugate visualized with TMB. Strong inhibitors from the single point screen were titrated to determine EC50 (Table 10C).

OD (450 nm) [OD]	Binder
0.405	TIGIT-SC73 (Fc fusion, VHH-Fc) VHH: EVQLVESGGGLVQPGGSLRLSCAASGSSFSLADYAMGWFRQAPGKEREFVAAISYNVGTTYYADSVKGRFTISADNSKNTAYLQMNSLKPEDTAVYYCARWSAKRHSDTMTYYMDVWGQGTLVTVSS
0.666	TIGIT-SC69 (Fc fusion, VHH-Fc) VHH: EVQLVESGGGLVQPGGSLRLSCAASGGTFNGRAMGWFRQAPGKEREFVAAISSIGDTYYADSVKGRFTISADNSKNTAYLQMNSLKPEDTAVYYCARWRLDRRQGFYYAMDVWGQGTLVTVSS
0.64	TIGIT-SC70 (Fc fusion, VHH-Fc) VHH: EVQLVESGGGLVQPGGSLRLSCAASGRTFSSFAMGWFRQAPGKEREFVAAISGSGEDTYYADSVKGRFTISADNSKNTAYLQMNSLKPEDTAVYYCARWRLDRRQGFYYAMDVWGQGTLVTVSS
0.359	TIGIT-SC44 (Fc fusion, VHH-Fc) VHH: EVQLVESGGGLVQPGGSLRLSCAASGSIFGLGAMGWFRQAPGKERELVAITWGGSTTLYADSVKGRFTISADNSKNTAYLQMNSLKPEDTAVYYCATDQGQWLFDFWGQGTLVTVSS
0.325	TIGIT-SC66 (Fc fusion, VHH-Fc) VHH: EVQLVESGGGLVQPGGSLRLSCAASGTTFSSAAMGWFRQAPGKEREWVASVLRGGYTWYADSVKGRFTISADNSKNTAYLQMNSLKPEDTAVYYCVTDPRQWLGHDYWGQGTLVTVSS
0.335	TIGIT-SC56 (Fc fusion, VHH-Fc) VHH: EVQLVESGGGLVQPGGSLRLSCAASGNTFSGGFMGWFRQAPGKEREWVASVLRGGYTWYADSVKGRFTISADNSKNTAYLQMNSLKPEDTAVYYCAHSKGYNWFDPWGQGTLVTVSS
0.868	TIGIT-SC71 (Fc fusion, VHH-Fc) VHH: EVQLVESGGGLVQPGGSLRLSCAASGSIRSLNAMGWFRQAPGKEREFVAAINWDSARTYYADSVKGRFTISADNSKNTAYLQMNSLKPEDTAVYYCARWSAKRHSDTMTYYMDVWGQGTLVTVSS
0.764	TIGIT-SC33 (Fc fusion, VHH-Fc) VHH: EVQLVESGGGLVQPGGSLRLSCAASGFLFDSYAMGWFRQAPGKEREFVAAVSQSGLLTFYADSVKGRFTISADNSKNTAYLQMNSLKPEDTAVYYCASRTSSWWWFDPWGQGTLVTVSS
0.382	TIGIT-SC49 (Fc fusion, VHH-Fc) VHH: EVQLVESGGGLVQPGGSLRLSCAASGRTFIGYHMGWFRQAPGKEREFVAAISWTGESTLYADSVKGRFTISADNSKNTAYLQMNSLKPEDTAVYYCARDDYGDYRRYFQHWGQGTLVTVSS
0.394	TIGIT-SC72 (Fc fusion, VHH-Fc) VHH: EVQLVESGGGLVQPGGSLRLSCAASGGLTFSSYAMGWFRQAPGKEREFVAAISWSGGRTYYADSVKGRFTISADNSKNTAYLQMNSLKPEDTAVYYCARWSAKRHSDTMTYYMDVWGQGTLVTVSS
0.613	TIGIT-SC40 (Fc fusion, VHH-Fc) VHH: EVQLVESGGGLVQPGGSLRLSCAASGFSFDRWAMGWFRQAPGKERELVARISWNGGSTYYADSVKGRFTISADNSKNTAYLQMNSLKPEDTAVYYCARDDGWLQFMHWGQGTLVTVSS
0.69	TIGIT-SC47 (Fc fusion, VHH-Fc) VHH: EVQLVESGGGLVQPGGSLRLSCAASGRALNMYVMGWFRQAPGKERELVAAIDWSGGSALYADSVKGRFTISADNSKNTAYLQMNSLKPEDTAVYYCASGDGYSMDYFDPWGQGTLVTVSS
0.381	TIGIT-SC48 (Fc fusion, VHH-Fc) VHH: EVQLVESGGGLVQPGGSLRLSCAASGRTSDIYGMGWFRQAPGKEREAVASIWRSGGNTYYADSVKGRFTISADNSKNTAYLQMNSLKPEDTAVYYCASSTLDVWGQGTLVTVSS
0.42	TIGIT-SC35 (Fc fusion, VHH-Fc) VHH: EVQLVESGGGLVQPGGSLRLSCAASGFTLENNMMGWFRQAPGKERELVAAISMSGDDTIYADSVKGRFTISADNSKNTAYLQMNSLKPEDTAVYYCARQGDTVMVSGIDYWGQGTLVTVSS
0.399	TIGIT-SC29 (Fc fusion, VHH-Fc) VHH: EVQLVESGGGLVQPGGSLRLSCAASGFTLENNMMGWFRQAPGKERELVAAIDWSGGSTIYADSVKGRFTISADNSKNTAYLQMNSLKPEDTAVYYCARGHDYGDYIAYWGQGTLVTVSS
0.495	TIGIT-SC30 (Fc fusion, VHH-Fc) VHH: EVQLVESGGGLVQPGGSLRLSCAASGRSFSSDWIGWFRQAPGKERELVAAIDWSGGSALYADSVKGRFTISADNSKNTAYLQMNSLKPEDTAVYYCARVNWNNVGWFDPWGQGTLVTVSS
0.4	TIGIT-SC34 (Fc fusion, VHH-Fc) VHH: EVQLVESGGGLVQPGGSLRLSCAASGTTFSPYTMGWFRQAPGKEREFVASINSGSRTNYADSVKGRFTISADNSKNTAYLQMNSLKPEDTAVYYCVRSEIGWGQGTLVTVSS
0.351	TIGIT-SC52 (Fc fusion, VHH-Fc) VHH: EVQLVESGGGLVQPGGSLRLSCAASGFLFDSYAMGWFRQAPGKEREFVAAISTGGGWRTYADSVKGRFTISADNSKNTAYLQMNSLKPEDTAVYYCAKRGNDNWYFDLWGQGTLVTVSS
0.86	TIGIT-SC32 (Fc fusion, VHH-Fc) VHH: EVQLVESGGGLVQPGGSLRLSCAASGFAFGDSWMGWFRQAPGKERELVAAIDWSGGSALYADSVKGRFTISADNSKNTALQMNSLKPEDTAVYYCAKVHSDFRAGWDVWGQGTLVTVSS
0.649	TIGIT-SC74 (Fc fusion, VHH-Fc) VHH: EVQLVESGGGLVQPGGSLRLSCAASGRTFANNAMGWFRQAPGKEREFVAAINWSGGNTYYADSVKGRFTISADNSKNTAYLQMNSLKPEDTAVYYCAKWSYYGSGLYGMDVWGQGTLVTVSS
0.364	TIGIT-SC55 (Fc fusion, VHH-Fc) VHH: EVQLVESGGGLVQPGGSLRLSCAASGFPFDDYAMGWFRQAPGKERELVAVIRWTGMNTHYADSVKGRFTISADNSKNTAYLQMNSLKPEDTAVYYCAKGIAVAGAFDYWGQGTLVTVSS
0.359	TIGIT-SC45 (Fc fusion, VHH-Fc) VHH: EVQLVESGGGLVQPGGSLRLSCAASGGTFNAMGWFRQAPGKEREWVASVLRGGYTWYADSVKGRFTISADNSKNTAYLQMNSLKPEDTAVYYCAKDGGSSGTYQNWWGQGTLVTVSS
0.652	TIGIT-SC39 (Fc fusion, VHH-Fc) VHH: EVQLVESGGGLVQPGGSLRLSCAASGRTVSSHAMGWFRQAPGKEREFVAAITSSGSTYYADSVKGRFTISADNSKNTAYLQMNSLKPEDTAVYYCASSYSSSSGLGDIWGQGTLVTVSS
0.64	TIGIT-SC43 (Fc fusion, VHH-Fc) VHH: EVQLVESGGGLVQPGGSLRLSCAASGFTFADYAMGWFRQAPGKEREMVAAIGWNSGTTEYADSVKGRFTISADNSKNTAYLQMNSLKPEDTAVYYCARDTNGWFFDFWGQGTLVTVSS
